The values that follow come from publication PMC5601012 (Molecular pharmaceutics, 2017).

Where two headings read alike, the source gives them in different places.

In experiment [1] the target is T1, programmed death-1 (PD-1) on EL4 cells (mouse (endogenous in EL4), UniProt Q02242). The experiment in a line: flow cytometry on cells. A general note: In flow cytometry, cells or beads pass a laser one at a time.
The target in experiment [2] is T1, programmed death-1 (PD-1) on EL4 cells. The experiment in a line: flow cytometry on cells. The source holds these as a separate data set.

T1 sequence (Q02242 25-288): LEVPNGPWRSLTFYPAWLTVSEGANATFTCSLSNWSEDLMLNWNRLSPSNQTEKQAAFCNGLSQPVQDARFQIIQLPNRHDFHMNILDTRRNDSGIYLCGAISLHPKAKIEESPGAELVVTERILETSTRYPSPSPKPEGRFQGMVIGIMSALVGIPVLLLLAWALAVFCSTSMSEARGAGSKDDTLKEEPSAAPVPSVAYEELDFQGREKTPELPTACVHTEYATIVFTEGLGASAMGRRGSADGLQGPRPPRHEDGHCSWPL

B1: αPD-1 scFv, NH2-Histag(H6)-(GGGSG)3-VH-(GGGSG)4-VL-COOH (scFv, V domains shown)
VH: EVQLQESGPGLVKPSQSLSLTCSVTGYSITSSYRWNWIRKFPGNRLEWMGYINSAGISNYNPSLKRRISITRDTSKNQFFLQVNSVTTEDAATYYCARSDNMGTTPFTYWGQGTLVTVSS
VL: DIVMTQGTLPNPVPSGESVSITCRSSKSLLYSDGKTYLNWYLQRPGQSPQLLIYWMSTRASGVSDRFSGSGSGTDFTLKISGVEAEDVGIYYCQQGLEFPTFGGGTKLELK
For B1, the EC50 – broadly, the concentration giving half of the maximal effect – in experiment [1] is 0.32 µM; in experiment [2], 4.16 µM.

B2: intact anti-programmed death-1 antibody (αPD-1), clone RMP1-14 (antibody, V domains shown)
VH: B1 VH
VL: B1 VL
As to B2, it took 1.32 µM to reach a half-maximal effect in experiment [2] (EC50).
